T1: BMP-7 (CHO cells, R&D Systems) (UniProt P18075 293-431, biotin (biotinylated for the biosensor; site not stated))
T1 construct: bone morphogenetic protein 7 (BMP-7), mature ligand; source: bought: R&D Systems (CHO cells)
T1 sequence (looked up): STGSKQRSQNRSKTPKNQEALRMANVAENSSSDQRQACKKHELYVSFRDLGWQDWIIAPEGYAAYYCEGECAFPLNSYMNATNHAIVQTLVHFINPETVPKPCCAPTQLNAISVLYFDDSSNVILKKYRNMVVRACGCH

T2: BMPR-II receptor ectodomain (UniProt Q13873 27-150)
T2 construct: BMP type II receptor (BMPR-II), extracellular domain; also called BMPR-IIECD; source: expressed and purified as described earlier [28]
T2 sequence (looked up): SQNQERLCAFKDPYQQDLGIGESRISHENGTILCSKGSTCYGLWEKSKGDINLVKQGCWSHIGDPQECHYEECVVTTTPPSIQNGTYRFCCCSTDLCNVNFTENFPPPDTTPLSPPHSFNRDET

T3: ActR-IIBECD L61A (UniProt P27040 19-137, L61A)
T3 construct: also called ActR-IIBL61A; source: E. coli OrigamiB (DE3), purified (Ni2+-IMAC, thrombin cleavage, anion exchange, RP-HPLC)
T3 sequence (looked up): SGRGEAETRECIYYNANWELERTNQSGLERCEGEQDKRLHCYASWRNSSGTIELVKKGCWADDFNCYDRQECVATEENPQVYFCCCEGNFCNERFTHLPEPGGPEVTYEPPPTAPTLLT

T4: ActR-IIBECD L61P (UniProt P27040 19-137, L61P)
T4 construct: also called ActR-IIBL61P; source: E. coli OrigamiB (DE3), purified (Ni2+-IMAC, thrombin cleavage, anion exchange, RP-HPLC)
T4 sequence (looked up): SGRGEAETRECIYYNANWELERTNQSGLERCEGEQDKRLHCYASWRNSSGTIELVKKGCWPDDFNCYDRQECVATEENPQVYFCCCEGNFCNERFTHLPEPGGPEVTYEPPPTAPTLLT

B1: ActR-IIBECD wildtype (activin type IIB receptor ectodomain) (receptor, UniProt P27040 19-137, looked up)
chain: SGRGEAETRECIYYNANWELERTNQSGLERCEGEQDKRLHCYASWRNSSGTIELVKKGCWLDDFNCYDRQECVATEENPQVYFCCCEGNFCNERFTHLPEPGGPEVTYEPPPTAPTLLT
notes: source: E. coli OrigamiB (DE3), purified (Ni2+-IMAC, thrombin cleavage, anion exchange, RP-HPLC)

Legend:
Conditions in all cases: both partners purified
[1] = biological target: T5, binary complex BMP-2:BMPR-IAECD (UniProt P12643 283-396; P36894 24-152); assay: ITC; isothermal titration calorimetry, 25°C; who was titrated is not told
T5 construct: bone morphogenetic protein 2 (BMP-2), mature ligand, as m1; BMP type IA receptor (BMPR-IA), extracellular domain, as m25; also called BMP-2 complexed with BMPR-IAECD; BMP-2:(BMPR-IAECD)2; source: formed from the purified proteins and purified as described [58]; copies: 2 + 2

[2] = biological target: T1, BMP-7 (CHO cells, R&D Systems); assay: SPR; BIACORE 2000; biotinylated ligand on a streptavidin-modified CM5 chip (about 200 RU); receptor ectodomain as analyte at 1, 2, 3, 5, 10, 20 and 50 uM; HBS500 (10 mM HEPES pH 7.4, 500 mM NaCl, 3.4 mM EDTA, 0.005% P20); apparent KD from the dose dependence of equilibrium binding
[3] = biological target: T1, BMP-7 (CHO cells, R&D Systems); assay: as above; remark: listed apart in the source
[4] = biological target: T6, ActR-II receptor ectodomain (UniProt P27037 20-135); assay: as above
T6 construct: activin receptor type II (ActR-II), extracellular domain; also called ActR-IIECD; source: expressed and purified as described earlier [28]

[5] = biological target: B1; assay: as above
[6] = biological target: T6, ActR-II receptor ectodomain; assay: as above; remark: listed apart in the source
[7] = biological target: T2, BMPR-II receptor ectodomain; assay: as above
[8] = biological target: B1; assay: as above; remark: listed apart in the source
[9] = biological target: T3, ActR-IIBECD L61A; assay: as above
[10] = biological target: T4, ActR-IIBECD L61P; assay: as above

Row | dH [1] [kcal/mol] | Kd [2] [µM] | Kd [3] [µM] | Kd [4] [µM] | Kd [5] [µM] | Kd [6] [µM] | Kd [7] [µM] | Kd [8] [µM] | Kd [9] [µM] | Kd [10] [µM] | Binder
1 | 14 | 3.6 | 2.8 |  |  |  |  |  |  |  | B1
2 |  |  |  | ~0.25 | 0.065 | 0.23 | 8.7 | 0.06 | 2 | 180 | activin A (Sf9 cells) (ligand, UniProt P08476 311-426, looked up, biotin (biotinylated for the biosensor; site not stated), activin A (dimer of inhibin beta A chains), mature ligand; also called Act-A; source: Sf9 cells [59]) GLECDGKVNICCKKQFFVSFKDIGWNDWIIAPSGYHANYCEGECPSHIAGTSGSSLSFHSTVINHYRMRGHSPFANLKSCCVPTKLRPMSMLYYDDGQNIIKKDIQNMIVEECGCS

— paper PMC1802081 (BMC Structural Biology, 2007)
